In article PMC8771563, “Mitochondrion-targeted supramolecular “nano-boat” simultaneously inhibiting dual energy metabolism for tumor selective and synergistic chemo-radiotherapy” (Theranostics, 2022):
Peptide text beside a SMILES is read from it. * marks the point of attachment. X1 = O=C(c1nn(Cc2ccc(Cl)cc2Cl)c2ccccc12)*; Cyclenylacetyl = O=C(CN1CCNCCNCCNCC1)*; NBD = O=[N+]([O-])c1ccc(*)c2nonc12; βAla = NCCC(=O)O

How the values were obtained:
[1] = system: MCF-7 cells; test: CCK-8 cytotoxicity assay; assay type: cell-based; details: 200 μM, 48 h
Method: Circular dichroism (CD) spectra
The secondary structure of LND- Pep-cyclen hydrogel and NBD- Pep-cyclen hydrogel were monitored by a circular dichroism (CD) spectrophotometer (BioLogic, MOS-450, France) system. The self-assembled hydrogel was added into a 0.1 cm quartz spectrophotometer cell (20- C/Q/0.1), then the CD signals were recorded in the 180- 280 nm scanning wavelength range. The final spectrogram was obtained after subtracting the PBS solvent background.
Mammary carcinoma cancer cells (MCF-7 and 4T1), and mouse fibroblast cells normal cells (L929) were all maintained in our lab. These cells were cultured in DMEM (MCF-7) and RPMI 1640 medium (4T1 and L929) supplemented with 10%
FBS and 1% penicillin-streptomycin in a humidified incubator maintained at 37 °C and 5% CO2, respectively.
Cytotoxicity and apoptosis analysis
All kinds of cells were seeded in 96-well plates at a density of 5000 cells per well. After 24 h incubation, the cells were treated with a series of pre-determined doses of LND-Pep-cyclen nanofibers, free LND, free cyclen, mixture of free LND and cyclen molecules for 48 h. After adding 10 μL CCK-8 solution to each well, the cells were incubated at 37 °C for another 4 h. OD450 was measured using a Thermo Scientific™ Varioskan™ LUX (Thermo, CA, USA), and then the cell viability values

[2] = system: MCF-7 cells; test: Annexin V-FITC/PI apoptosis flow cytometry; assay type: cell-based; details: 50 μM, 48 h, Figure 2D
Method: of different groups at different doses were calculated. For apoptosis assay, MCF -7 and L929 cells were cultured in 6-well plates at a density of 2 × 10^5 cells per well, then were treated with different forms of drug for 48 h. Afterwards, cells were harvested at 1000 rpm for 5 min and then washed with ice-cold PBS twice. Upon being suspended in 100 μL 1× binding buffer, the samples were incubated with 5 μL of FITC-Annexin- V and 5 μL of PI for 15 min at room temperature in the dark. Finally, the cells were added in 100 μL 1× binding buffer blending gently and analyzed by flow cytometry (Becton Dickinson, NJ, USA) within 1 h.
MCF-7 cancer cells and L929 normal cells with a density of 1×10^5 cells/mL were cultured in confocal chambers and 6-well plates at 37 °C, respectively. After 70% confluence, the cells were treated with fresh medium which contained the same concentrations of LND-Pep-cyclen nanofibers, LND, cyclen, mixture of free LND and cyclen molecules for 12 h. Then, followed by washing twice with PBS and incubated with 1 mL DCFH-DA (10 μM) at 37 °C for 30 min in the dark. The cells in 6-well plates were harvested, washed, re- suspended and then loaded on flow cytometry for quantitate analysis. […] Excitation at 488 nm and signal collection at 525 ± 10 nm for DCFH-DA fluorescence. […]

[3] = system: MCF-7 cells; test: MMP depolarization (JC-1 probe, CLSM); assay type: cell-based; details: 50 μM, 24 h, serum-free medium, JC-1 10 µg/mL 30 min
Method: MCF-7 cancer cells with a density of 2 × 10^5 cells/mL were cultured in confocal cuvettes under 5% CO2 at 37 °C. After the number of anchorage-dependent cells reached up to 70%, the cells were incubated with a replaceable serum-free medium containing different forms of the drug (50 μM) for 24 h. This was followed by washing away the drug that was not absorbed and staining with 1 mL JC-1 probe (10 µg/mL) for 30 min in dark. After washing with PBS for three times, the cells were imaged by CLSM to examine the fluorescence intensity of the J-monomers and the J-aggregates.

[4] = system: MCF-7 cells; test: ATP content (luminescent assay); assay type: cell-based; details: 50 μM, 24 h, per cell, control = 100%, mean n = 5
Method: MCF-7 cells with a density of 5000 cells/well were seeded in 96-well plates, and then were cultured at the incubators for 24 h at 37 °C under 5% CO2. After co-incubation with different forms of drugs for another 24 h, the growth medium was removed, and the wells were washed twice with PBS. The cell number of each group was counted before all the measurements. After dissociation and centrifugation, the liquid supernatant was collected for the following analysis of the HK activity and the lactate content. The hexokinase (HK) activity of the cells in each group was determined by the OD340 absorbance according to the specification of the HK activity assay kit (Solarbio, BC0745). The intracellular lactate content was detected using an L-lactate assay kit (Promega, J5021) and depended on the OD565 absorbance. A luminescent ATP detection assay kit (Abcam, ab113849) was used to analyze the quantity of ATP. All the data were shown as the mean value in per cell of each group.

[5] = system: MCF-7 cells; test: Colony formation assay / radio-sensitization; assay type: cell-based; details: 10 μM, 12 h, γ-rays 0-6 Gy, multi-target single-hit model, n = 3
Method: MCF-7 cells (1,000/well) were seeded in six-well plates and incubated with different forms of drugs at a concentration of 10 μM after 12 h. Subsequently, they were irradiated with γ-rays at doses of 0, 2, 4, and 6 Gy at 36 h. Following this, the cells were continuously cultured with a fresh drug-free medium in an incubator for another 5-8 days. The fixed colonies were then stained using crystal violet (0.25%, ethanol) for subsequently counting the number of colonies, and evaluating the colony inhibition ability of each treatment. Only colonies containing >50 cells were counted and survival curves were plotted with Origin. Furthermore, the SER value was used to compare the efficiencies of the different drugs in improving the sensitivity of the MCF-7 cells to radiotherapy. The SER was determined by a classical multi-target single-hit model using the following equation:
S = 1 - (1 - e ^-D/D0)^n (1)
where S is the survival fraction, D is the radiation dose, D0 is the mean lethal dose, and n is the extrapolation number. D0 and n were calculated using the“GraphPad Prism” software (version 8.0). The final survival fraction curve of each group was obtained by a nonlinear fitting using Origin 2018, and the SER was expressed using the following formulae:
SER = Dq (control group)/Dq (treated group (2)

[6] = system: MCF-7 tumors; test: In vivo anti-tumor evaluation; details: MCF-7 tumor bearing nude mice, single i.v. injection, 5 mg/kg LND equivalent, day 14, vs PBS control
Method: (§1) MCF-7 cells (1×10^7 cells per mouse) were subcutaneously injected into the breast regions of six-week-old nude mice to establish the tumor model. When the tumor volume grew to approximately 100 mm^3, all the mice were randomly divided into eight groups with seven mice in each group. Except for the control groups, all groups were intravenously administrated with 200 μL of LND-Pep-cyclen nanofibers, free LND, and mixture of free LND and free cyclen (5 mg/kg LND equivalent and 2 mg/kg cyclen equivalent), respectively. After 12 hours, the mice in the chemo-radiotherapy group were exposed to 6 Gy γ-rays. To evaluate the therapeutic efficacy, the tumor size and the body weight were recorded daily. The tumor volumes were measured using a vernier caliper and then calculated using the formula: (width^2×length)/2. On the 14th day, all the mice were euthanized when the tumor volume in the PBS control group reached approximately 1500 mm^3. The tumors and normal tissues including heart, liver, spleen, lung and kidney in each group were carefully collected, photographed, and then fixed in 4% form aldehyde for histological analysis.

[7] = H&E histology of major organs after treatment; assay type: in vivo, nude mice; details: single administration, compared with control group (Figure S22)
Method: as §1

[8] = Bio-compatibility evaluation (hematology, blood biochemistry); assay type: in vivo; details: BALB/c mice, 20 mg/kg i.v. at day 0, 7, 14, 21 (four injections), n = 5
Method: Cambridge, UK), anti-Bcl-2 (1:1000, Abcam, Cambridge, UK), anti-smac and anti-GAPDH antibody. After washing with 1 ×TBST, membranes were incubated with corresponding secondary antibody for 1 h at room temperature. The membranes were washed 3 times by 1 ×TBST and illuminated by an enhanced chemiluminescent (ECL) kit (Pierce™ ECL Western Blotting Substrate, Thermo Scientific, Rockford, IL, USA) on a Bio- Rad film (Sigma-Aldrich, St. Louis, MO, USA).
Bio-compatibility evaluation
Six-week-old BALB/c mice were randomly assigned to two groups and intravenously administrated with 200 μL of LND-Pep-cyclen nanofibers (20 mg/kg) and PBS at 0 day, 7 day, 14 day, 21 day. All the mice were sacrificed at the last time point, followed by collecting the whole body blood for the hematology and blood

[9] = system: MCF-7 cells; assay type: cell-based
Method: To confirm our hypothesis, we subsequently used a fluorescent molecule of 7-nitrobenzo-2-oxa-1,3-diazole (NBD), to replace LND, resulting in another peptide conjugate of NBD-GFFYK-cyclen (NBD-Pep-cyclen). […] Therefore, the NBD-Pep-cyclen conjugate could be very qualified as a substitute for LND-Pep-cyclen to verify its mitochondrial targeting performance. After incubation with MCF-7 cells for 4 hours, the cellular distribution of the NBD-Pep-cyclen nanofibers was investigated. […] The endocytosis mechanism for the cellular uptake was investigated using several well-established endocytotic inhibitors. […] In contrast, the addition of NaN3 (an inhibitor of energy-dependent endocytosis) and chlorpromazine (an inhibitor of clathrin-mediated endocytosis) reduced the uptake to less than 50%. […]
Figure S9 (A) CLSM images of MCF-7 cells treated with NBD-Pep-cyclen
nanofibers in the absence and presence of endocytotic inhibitors. […]

[10] = system: MCF-7 and L929 cells; test: Flow cytometry of NBD accumulation in cancer versus normal cells; assay type: cell-based; details: 50 μM, 4 h, flow cytometry MFI, n = 3

With O=C(O)c1nn(Cc2ccc(Cl)cc2Cl)c2ccccc12 [LND, Lonidamine] as the molecule, how does the Cell survival rate [1] read?
The Cell survival rate was 50%.

And the “Cells in lower right quadrant (PI / Annexin V-FITC plot); early apoptosis rate” value [2]?
The value was 1.45%.

And the MMP depolarization [3]?
Its MMP depolarization is “very limited effect”.

What about the “ATP content, of control” value [4] of the same molecule?
Its value is 60%.

What about the “SER (sensitization enhancement ratio)” value [5] of the same molecule?
Its value is 1.78.

And the “Tumor growth / final tumor volume, chemotherapy only” value [6]?
Its value is “barely inhibit the tumor growth”.

For O=C(CN1CCNCCNCCNCC1)NCCCC[C@H](NC(=O)[C@H](Cc1ccc(O)cc1)NC(=O)[C@H](Cc1ccccc1)NC(=O)[C@H](Cc1ccccc1)NC(=O)CNC(=O)c1nn(Cc2ccc(Cl)cc2Cl)c2ccccc12)C(=O)O [LND-Pep-cyclen] (X1-GFFYK(Cyclenylacetyl)-OH), which “Histological changes in liver, spleen, kidney, heart, lung (H&E)” value [7] is on record?
Its value is “no appreciable inflammatory damage and tissue damage”.

And the “Liver and kidney indices (ALT, AST, TBIL, BUN)” value ([8]; vs control)?
The value was “normal with no relevant difference”.

What about the Blood routine values ([8]; vs untreated control) of the same molecule?
Its Blood routine values is “no apparent variations”.

For O=C(CCNc1ccc([N+](=O)[O-])c2nonc12)NCC(=O)N[C@@H](Cc1ccccc1)C(=O)N[C@@H](Cc1ccccc1)C(=O)N[C@@H](Cc1ccc(O)cc1)C(=O)N[C@@H](CCCCNC(=O)CN1CCNCCNCCNCC1)C(=O)O [NBD-Pep-cyclen] ({NBD-βAla}-GFFYK(Cyclenylacetyl)-OH), which “Cellular uptake in presence of NaN3” value [9] is on record?
Its value is “less than 50%”.

What about the “Cellular uptake in presence of chlorpromazine” value [9] of the same molecule?
Its value is “less than 50%”.

And the “Cellular uptake in presence of nystatin” value [9]?
The value was “barely affected”.

And the “Cellular uptake in presence of wortmannin” value [9]?
The value was “barely affected”.

What about the “NBD fluorescence intensity in MCF-7 cells relative to L929 cells” value [10] of the same molecule?
The value was “more than two-folds”.
